# Earlier results in US5362858A, “Polyethylene glycol-hirudin conjugates, process for preparing them and their use for the treatment of thromboses” (Transgene S.A., priority 1992, dated 1994).
# Conditions: removal from the bloodstream
substance,measurement,value
hirudin,half-life period,about 1 h
